According to the RNAGym collection of RNA variant scans (doi:10.1093/molbev/msab373):

B1: Azoarcus group I ribozyme (parent)
chain: GUGCCUUGCGCCGGGAAACCACGCAAGGGAUGGUGUCAAAUUCGGCGAAACCUAAGCGCCCGCCCGGGCGUAUGGCAACGCCGAGCCAAGCUUCGGCGCCUGCGCCGAUGAAGGUGUAGAGACUAGACGGCACCCACCUAAGGCAAACGCUAUGGUGAAGGCAUAGUCCAGGGAGUGGCGAAAGUCACACAAACCGG

Variants of: B1
Assay: reverse-splicing fitness (ratio to wild type); higher = more active; in vitro selection; Mg2+ level not given
How it was run: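 An in vitro group I ribozyme library with randomized positions was T7-transcribed and gel-purified. In triplicate, 10 pmol RNA in EPPS pH 7.5 was reacted with 50 pmoles of a 30-nt RNA substrate for 1 h at 37 °C across several added MgCl2 levels (1–48 mM), then stopped with EDTA. Products were reverse transcribed from a substrate-complementary primer, PCR-amplified and sequenced (HiSeq 4000). Fitness is a variant's read proportion after selection over that before, normalised to wild type.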

| Variant | reverse-splicing fitness |
| --- | --- |
| GUGCCUUGCGCCGGGAAACCACGCAAGGGAUGGUGUCAAAUUCGGCGAAACCUAAGCGCCCGCCCGGGCGUAUGGCAACGCGGAGCCAAGCUUCGGCGCCUGCGCCGAUGUAGGUGUAGUGACUAGACGGCACCCACCUAAGGCCAACGAUAUGGUGAAGGCAUAGUCUAGGGAGAGGCGAAAGUCACACAAACCGG [C82G A111U A120U A145C C150A C169U U176A] | 0.00306 |
| GUGCCUUGCGCCGGGAAACCACGCAAGGGAUGGUGUCAAAUUCGGCGAAACCUAAGCGCCCGCCCGGGCGUAUGGCAACGCGGAGCCAAGCUUCGGCGCCUGCGCCGAUGUAGGUGUAGUGACUAGACGGCACCCACCUAAGGCCAACGAUAUGGUGAAGGCAUAGUCUAGGGAGGGGCGAAAGUCACACAAACCGG [C82G A111U A120U A145C C150A C169U U176G] | 0.00177 |
| GUGCCUUGCGCCGGGAAACCACGCAAGGGAUGGUGUCAAAUUCGGCGAAACCUAAGCGCCCGCCCGGGCGUAUGGCAACGCGGAGCCAAGCUUCGGCGCCUGCGCCGAUGUAGGUGUAGUGACUAGACGGCACCCACCUAAGGCCAACGAUAUGGUGAAGGCAUAGUCUAGGGAGCGGCGAAAGUCACACAAACCGG [C82G A111U A120U A145C C150A C169U U176C] | 0.00247 |
| GUGCCUUGCGCCGGGAAACCACGCAAGGGAUGGUGUCAAAUUCGGCGAAACCUAAGCGCCCGCCCGGGCGUAUGGCAACGCGGAGCCAAGCUUCGGCGCCUGCGCCGAUGUAGGUGUAGGGACUAGACGGCACCCACCUAAGGCAAACGCUAUGGUGAAGGCAUAGUCUAGGGAGAGGCGAAAGUCACACAAACCGG [C82G A111U A120G C169U U176A] | 0.0197 |
| GUGCCUUGCGCCGGGAAACCACGCAAGGGAUGGUGUCAAAUUCGGCGAAACCUAAGCGCCCGCCCGGGCGUAUGGCAACGCGGAGCCAAGCUUCGGCGCCUGCGCCGAUGUAGGUGUAGGGACUAGACGGCACCCACCUAAGGCAAACGCUAUGGUGAAGGCAUAGUCUAGGGAGGGGCGAAAGUCACACAAACCGG [C82G A111U A120G C169U U176G] | 0.00589 |
| GUGCCUUGCGCCGGGAAACCACGCAAGGGAUGGUGUCAAAUUCGGCGAAACCUAAGCGCCCGCCCGGGCGUAUGGCAACGCGGAGCCAAGCUUCGGCGCCUGCGCCGAUGUAGGUGUAGGGACUAGACGGCACCCACCUAAGGCAAACGCUAUGGUGAAGGCAUAGUCUAGGGAGCGGCGAAAGUCACACAAACCGG [C82G A111U A120G C169U U176C] | 0.0179 |
| GUGCCUUGCGCCGGGAAACCACGCAAGGGAUGGUGUCAAAUUCGGCGAAACCUAAGCGCCCGCCCGGGCGUAUGGCAACGCGGAGCCAAGCUUCGGCGCCUGCGCCGAUGUAGGUGUAGUGACUAGACGGCACCCACCUAAGGCCAACGAUAUGGUGAAGGCAUAGUCGAGGGAGUGGCGAAAGUCACACAAACCGG [C82G A111U A120U A145C C150A C169G] | 0.00272 |
| GUGCCUUGCGCCGGGAAACCACGCAAGGGAUGGUGUCAAAUUCGGCGAAACCUAAGCGCCCGCCCGGGCGUAUGGCAACGCGGAGCCAAGCUUCGGCGCCUGCGCCGAUGUAGGUGUAGUGACUAGACGGCACCCACCUAAGGCCAACGAUAUGGUGAAGGCAUAGUCUAGGGAGUGGCGAAAGUCACACAAACCGG [C82G A111U A120U A145C C150A C169U] | 0.0027 |
| GUGCCUUGCGCCGGGAAACCACGCAAGGGAUGGUGUCAAAUUCGGCGAAACCUAAGCGCCCGCCCGGGCGUAUGGCAACGCGGAGCCAAGCUUCGGCGCCUGCGCCGAUGUAGGUGUAGUGACUAGACGGCACCCACCUAAGGCCAACGAUAUGGUGAAGGCAUAGUCAAGGGAGUGGCGAAAGUCACACAAACCGG [C82G A111U A120U A145C C150A C169A] | 0.00264 |
| GUGCCUUGCGCCGGGAAACCACGCAAGGGAUGGUGUCAAAUUCGGCGAAACCUAAGCGCCCGCCCGGGCGUAUGGCAACGCGGAGCCAAGCUUCGGCGCCUGCGCCGAUGUAGGUGUAGGGACUAGACGGCACCCACCUAAGGCAAACGCUAUGGUGAAGGCAUAGUCAAGGGAGGGGCGAAAGUCACACAAACCGG [C82G A111U A120G C169A U176G] | 0.00437 |
| GUGCCUUGCGCCGGGAAACCACGCAAGGGAUGGUGUCAAAUUCGGCGAAACCUAAGCGCCCGCCCGGGCGUAUGGCAACGCGGAGCCAAGCUUCGGCGCCUGCGCCGAUGUAGGUGUAGUGACUAGACGGCACCCACCUAAGGCCAACGAUAUGGUGAAGGCAUAGUCAAGGGAGGGGCGAAAGUCACACAAACCGG [C82G A111U A120U A145C C150A C169A U176G] | 0.0022 |
| GUGCCUUGCGCCGGGAAACCACGCAAGGGAUGGUGUCAAAUUCGGCGAAACCUAAGCGCCCGCCCGGGCGUAUGGCAACGCGGAGCCAAGCUUCGGCGCCUGCGCCGAUGUAGGUGUAGUGACUAGACGGCACCCACCUAAGGCCAACGAUAUGGUGAAGGCAUAGUCAAGGGAGAGGCGAAAGUCACACAAACCGG [C82G A111U A120U A145C C150A C169A U176A] | 0.00214 |
| GUGCCUUGCGCCGGGAAACCACGCAAGGGAUGGUGUCAAAUUCGGCGAAACCUAAGCGCCCGCCCGGGCGUAUGGCAACGCGGAGCCAAGCUUCGGCGCCUGCGCCGAUGUAGGUGUAGUGACUAGACGGCACCCACCUAAGGCCAACGAUAUGGUGAAGGCAUAGUCAAGGGAGCGGCGAAAGUCACACAAACCGG [C82G A111U A120U A145C C150A C169A U176C] | 0.00215 |
| GUGCCUUGCGCCGGGAAACCACGCAAGGGAUGGUGUCAAAUUCGGCGAAACCUAAGCGCCCGCCCGGGCGUAUGGCAACGCGGAGCCAAGCUUCGGCGCCUGCGCCGAUGUAGGUGUAGGGACUAGACGGCACCCACCUAAGGCAAACGCUAUGGUGAAGGCAUAGUCGAGGGAGUGGCGAAAGUCACACAAACCGG [C82G A111U A120G C169G] | 0.014 |
| GUGCCUUGCGCCGGGAAACCACGCAAGGGAUGGUGUCAAAUUCGGCGAAACCUAAGCGCCCGCCCGGGCGUAUGGCAACGCGGAGCCAAGCUUCGGCGCCUGCGCCGAUGUAGGUGUAGGGACUAGACGGCACCCACCUAAGGCAAACGCUAUGGUGAAGGCAUAGUCUAGGGAGUGGCGAAAGUCACACAAACCGG [C82G A111U A120G C169U] | 0.0106 |
